Molecular target: PsFcγRIIa (recombinant soluble human FcγRIIa protein produced in baculovirus-infected Sf-21 cells) (human) (UniProt P12318)
Assay: SPR competition; monomeric IgG (0 to 2 mg/ml) premixed with 50 ug/ml PsFcγRIIa, passed over immobilised IgG1

Q: Which molar excess giving complete inhibition (fold molar excess) does the source give for “monomeric IgG (Sandaglobulin, available from Sandoz) (antibody)” here?
A: Its molar excess giving complete inhibition (fold molar excess) is 6.

Source: US20060057144A1
